Biological target: SARS-CoV-2 non-structural protein 3 (nsp3), released from the expressed HA-nsp3-4-V5 polyprotein (SARS-CoV-2)
Experiment: cryo-EM structure

SARS-CoV-2 non-structural protein 3 (nsp3), released from the expressed HA-nsp3-4-V5 polyprotein (natural protein)
stoichiometry N: 6
